Laboratory results from doi:10.1101/2025.03.26.644761 (bioRxiv, 2025).
Numbering of substitutions follows the chain as printed.

Legend:
[1] = target: the molecule itself; assay: solid-state NMR of homomeric fibrils
[2] = target: the molecule itself; assay: single molecule fluorescence
[3] = target: T1, His6-YPet-mRIPK3_(379-486) (mouse, UniProt Q9QZL0 379-486); assay: SDS semi-denaturing agarose gel electrophoresis
T1 sequence (looked up): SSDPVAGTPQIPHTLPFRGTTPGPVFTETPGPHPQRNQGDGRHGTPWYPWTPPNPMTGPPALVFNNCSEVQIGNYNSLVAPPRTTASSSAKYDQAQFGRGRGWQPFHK

[4] = target: T2, His6-YPet-hRIPK3_(387–518) (human, UniProt Q9Y572 387-518); assay: Two-Colour Coincidence Detection spectroscopy
T2 sequence (looked up): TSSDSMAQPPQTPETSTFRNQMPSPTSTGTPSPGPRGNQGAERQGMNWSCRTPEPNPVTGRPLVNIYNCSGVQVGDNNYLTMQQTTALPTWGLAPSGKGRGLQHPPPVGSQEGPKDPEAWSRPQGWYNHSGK

[5] = target: the molecule itself; assay: Thioflavin T fluorescence + negative stain transmission electron microscopy

B1: RIPK3_(387-518), RHIM-containing region of human RIPK3, tag removed (domain or fragment, UniProt Q9Y572 387-518, looked up)
chain: T2 sequence (looked up)
- binding result [1]: binds

B2: His6-M45_(1–90)-mCherry, wild type (domain or fragment, murine cytomegalovirus (MCMV), UniProt Q06A28 1-90, looked up)
chain: MDRQPKVYSDPDNGFFFLDVPMPDDGQGGQQTATTAAGGAFGVGGGHSVPYVRIMNGVSGIQIGNHNAMSIASCWSPSYTDRRRRSYPKT
- binding result [2]: binds
- binding result [3]: binds

B3: M45_(1-90), RHIM-containing N-terminal region of MCMV M45 (viral inhibitor of RIP activation), tag removed (domain or fragment, murine cytomegalovirus (MCMV), UniProt Q06A28 1-90, looked up)
chain: B2 chain
- binding result [1]: binds

B4: His6-M45_(1–90)-mCherry, AAAA mutant C (domain or fragment, murine cytomegalovirus (MCMV), UniProt Q06A28 1-90, looked up)
chain: B2 chain with I61A, Q62A, I63A, G64A
- binding result [4]: binds

B5: His6-M45_(1–90)-mCherry, AAAA mutant A (domain or fragment, murine cytomegalovirus (MCMV), UniProt Q06A28 1-90, looked up)
chain: B2 chain with R53A, I54A, M55A, N56A
- binding result [5]: binds
- binding result [4]: binds

B6: His6-M45_(1–90)-mCherry, AAAA mutant B (domain or fragment, murine cytomegalovirus (MCMV), UniProt Q06A28 1-90, looked up)
chain: B2 chain with G57A, V58A, S59A, G60A
- binding result [2]: binds
- binding result [4]: binds

B7: His6-M45_(1–90)-mCherry, AAAA mutant D (domain or fragment, murine cytomegalovirus (MCMV), UniProt Q06A28 1-90, looked up)
chain: B2 chain with N65A, H66A, N67A
- binding result [4]: binds

B8: His6-M45_(1–90)-mCherry, AAAA mutant E (domain or fragment, murine cytomegalovirus (MCMV), UniProt Q06A28 1-90, looked up)
chain: B2 chain with M69A, S70A, I71A
- binding result [4]: binds
